Source: the supplement of paper PMC10567573

B1: ELF3 (parent)
chain: LSKEYWDCLEGKKSKHAPRGTHLW
B2: BTBD10 (parent)
chain: FVYENAKEGARNIRTSERVTLIVD

Variants of: B1
Assay: protein stability index of a GFP-peptide fusion (GPS, HEK-293T) (PSI 1-6); higher = more stable
Conditions: c terminus: a fixed tail appended
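Further: lentivirally expressed fusions sorted by FACS into six bins by GFP to DsRed ratio, PSI derived from sequencing read proportions per bin multiplied by bin number.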

Protein stability index: each site, then its substitutions
S2: V 2.36, A 2.59, D 3.11, T 2.98, K 2.28, L 1.91, M 2.48, P 2.99, Q 2.78, N 3.13, C 2.29, Y 1.91, G 3.12, R 2.48, I 2.26, F 2.26, E 3.59, H 3.04
W6: R 3.39, S 3.44, N 3.42, P 3.82, E 3.66, C 3.38, M 3.56, K 3.65, Y 3.22, F 3, H 2.33, T 3.97, G 2.84, L 3.08, I 2.96, Q 3.43, V 3.13, D 3.93, A 3.6
Y5: E 3.62, D 3.41, R 3, I 2.65, M 3.38, N 3.45, K 3.19, L 2.19, T 2.66, F 3.23, G 2.92, C 2.91, V 2.34, A 3.23, H 3.85, Q 2.45, W 2.66, S 3.3, P 3.37
E4: L 2.06, Y 2.16, A 2.23, P 2.35, V 2.53, G 1.99, W 1.58, R 1.86, M 2.56, C 4.2, H 1.89, S 2.38, K 2.11, F 2.13, Q 1.74, D 2.8, T 2.87, I 2.65, N 2.84
L1: D 3.2, H 2.16, Q 2.71, S 2.67, N 2.63, P 1.86, C 2.42, M 2.06, K 3.02, Y 2, I 2.37, R 2.96, W 1.97, E 3.35, V 2.77, T 2.53, G 3.33, A 2.79
D7: M 2.6, S 2.44, A 2.28, R 1.65, E 2.77, C 2.32, K 2.41, G 2.15, Q 3, P 2.04, L 2.26, H 2.33, F 1.83, N 2.96, V 2.44, T 2.76, I 2.05
K3: G 2.02, A 2.7, R 2.93, Q 2.13, M 2.33, E 2.97, W 2.35, L 2.57, H 2.78, I 2.29, V 2.1, T 2.83, Y 2.6, S 2.61, C 2.55, N 2.97, F 2.1, D 2.69, P 2.56

Variants of: B2
Assay: as above
Conditions: c terminus: a fixed tail appended

Protein stability index of substitutions, site by site:
R18: S 1.89, A 1.77, G 2.31, Y 1.44, P 2.31, H 1.98, F 2.16, K 2.1, V 1.69, L 1.83, I 1.66, Q 1.79, M 1.97, E 2.29, D 2.61, N 2.07, T 1.98, W 2.27, C 1.83
D24: P 2.06, Y 2.01, G 1.82, E 1.65, N 1.95, L 2.03, V 2.35, W 3.12, M 1.95, K 1.72, Q 2.03, S 1.18, R 1.93, I 2.95, A 1.49, C 1.91, T 2.5, F 2.88, H 1.66
I22: E 3, C 2.33, T 2.41, L 1.72, H 2.2, M 2.77, W 3.09, Y 1.81, S 2.67, P 2.89, D 2.96, K 2.34, F 2.06, V 2.92, A 1.76, G 1.72, N 2.72, Q 2.31, R 2.24
V23: N 2.92, A 2.26, F 1.99, D 2.39, C 2.15, R 2.68, P 3.05, S 2.25, W 1.4, I 1.82, H 2.26, G 2.11, T 2.16, L 2.07, K 2.06, Y 1.7, M 2.04, Q 2.47, E 2.89
S16: K 2.09, N 2.64, H 1.78, G 2.41, R 2.34, A 1.99, I 2.38, D 2.33, L 1.39, M 2.28, Y 2.44, Q 2.18, E 2.57, P 2.33, T 1.89, F 1.58, W 2.1, V 1.34, C 2.02
T20: L 1.48, N 2.56, F 2.63, M 1.82, Y 1.81, E 2.06, I 1.84, A 1.73, D 1.92, Q 2.18, H 2.06, R 1.81, S 2.27, C 2.74, G 1.59, P 3.04, V 1.38, W 3.5, K 2.07
T15: H 2.15, D 2.37, L 1.47, I 1.68, S 2.38, G 2.36, R 2.06, E 2.48, P 1.81, Y 1.39, C 1.91, M 1.97, V 1.75, N 2.11, A 2.26, F 1.99, K 2.25, Q 2.68
L21: V 1.64, K 2.6, Q 2.83, G 2.56, R 2.14, N 2.63, Y 1.89, C 2.32, I 1.57, T 2.07, S 2.32, P 2.03, D 3.07, H 2.11, E 2.79, F 1.88, M 1.99, W 2.56, A 2.34
E17: G 3.65, A 2.17, S 1.91, K 2.18, C 3.19, Q 1.87, N 2.22, I 2.25, H 1.8, L 3.89, R 1.46, V 3.52, T 1.23, M 2.82, P 1.54, D 1.74, Y 2.24, F 3.19
R14: M 2.04, V 2.05, E 2.18, S 2.33, I 2.02, W 2.87, G 1.99, K 1.68, Q 2.08, L 1.55, F 2.38, D 2.33, T 2.14, H 1.99, N 2.32, Y 2.85, P 1.85
V19: S 2, E 2.86, F 2.27, T 2.39, Q 2.6, K 1.91, Y 2.35, H 2.35, C 2.49, G 2.21, W 1.53, N 2.43, R 2.34, A 2.45, I 1.61, L 2, P 2.73, M 1.62, D 2.48
